According to article PMC12238573 (Nature Communications, 2025):

Key:
[1] = target: Branchiostoma lanceolatum Class II PRPS (Branchiostoma lanceolatum); test: SEC; lysate of HEK293T cells with exogenously expressed Class II PRPS; fractions analysed by Western blot
[2] = target: the molecule itself; test: SEC; native whole-cell lysates of NIH3T3 AP1 KO and AP1/AP2 KO cells on Yarra SEC-2000 (1 kDa to 300 kDa); fractions analysed by Western blot

Row | stoichiometry N [1] | Molecule | stoichiometry N [2]
1 | 2 to 6 | Branchiostoma lanceolatum Class II PRPS (enzyme) | –
2 | – | PRPS2 (endogenous, mouse) (enzyme, UniProt Q9CS42 1-318, looked up, PRPS2, endogenous in mouse cells and tissues; also called P2; phosphoribosyl pyrophosphate synthetase 2; source: endogenous, NIH3T3 lysate (parental and CRISPR knockout lines); endogenous, C57BL/6 mouse liver, kidney and lung lysates) MPNIVLFSGSSHQDLSQRVADRLGLELGKVVTKKFSNQETSVEIGESVRGEDVYIIQSGCGEINDNLMELLIMINACKIASSSRVTAVIPCFPYARQDKKDKSRAPISAKLVANMLSVAGADHIITMDLHASQIQGFFDIPVDNLYAEPAVLQWIRENITEWRNCIIVSPDAGGAKRVTSIADRLNVEFALIHKERKKANEVDRMVLVGDVKDRVAILVDDMADTCGTICHAADKLLSAGATKVYAILTHGIFSGPAISRINSAAFEAVVVTNTIPQEDKMKHCSKIQVIDISMILAEAIRRTHNGESVSYLFSHVPL | 2
